Test results from the supplement of paper PMC6757056.
± gives the standard deviation of the averaged measurements.

B1: library; a variant is named by its letters at N, in order (parent)
chain: GCUGUCACCGAGAAACUGUGAAGUAUAUCUUAAACCUGGGCACUUAAAAGAUAUAUGGAGUUAGUAGUGCAACCUGCUCGGUCUGAUGAGUCCNNNNNNGGACGAAACAGC

Key:
cyclic di-GMP [1] = variants of: B1; assay: FACS-Seq fitted mean relative fluorescence mCherry/BFP without ligand (log10 relative fluorescence); HEK293T; ligand: cyclic di-GMP (c-di-GMP-II aptamer); higher = higher reporter protein expression; conditions: ligand present: no
Protocol: (§1)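 Hammerhead (sTRSV) ribozyme switch libraries with a ligand aptamer grafted on stem I and a randomized N4-6 loop II, cloned into the 3' UTR of mCherry and transiently transfected into HEK293T cells; RNA-Seq 72 h post transfection with ligand added 1 h before transfection; RNA read count / plasmid DNA read count normalized to the non-cleaving sTRSVctl (x100), log10; sequences with >100 DNA reads. FACS-Seq: lentiviral library sorted into 6 bins after 48 h ligand, log-normal fit mean of mCherry/BFP scaled to controls. Printed sequences are partial switch sequences.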

cyclic di-GMP [2] = variants of: B1; assay: normalized RNA/DNA level without ligand (relative to sTRSVctl = 100) (log10 (% of sTRSVctl)); HEK293T; ligand: cyclic di-GMP (c-di-GMP-II aptamer); higher = less ribozyme self-cleavage, higher mRNA level; conditions: reporter: mCherry (pCS4076), ligand present: no
Protocol: as §1

cyclic di-GMP [3] = variants of: B1; assay: FACS-Seq fitted mean relative fluorescence mCherry/BFP with ligand (log10 relative fluorescence); HEK293T; ligand: cyclic di-GMP (c-di-GMP-II aptamer); ligand concentration (+) FACS-Seq: 1 mM; higher = higher reporter protein expression; conditions: ligand present: yes
Protocol: as §1

cyclic di-GMP [4] = variants of: B1; assay: normalized RNA/DNA level with ligand (relative to sTRSVctl = 100) (log10 (% of sTRSVctl)); HEK293T; ligand: cyclic di-GMP (c-di-GMP-II aptamer); ligand concentration (+) RNA-Seq: 1 mM; higher = less ribozyme self-cleavage, higher mRNA level; conditions: reporter: mCherry (pCS4076), ligand present: yes
Protocol: as §1

Variant | FACS-Seq fitted mean (log10) (cyclic di-GMP [1]) | normalized RNA/DNA level without ligand (log10) (cyclic di-GMP [2]) | FACS-Seq fitted mean (log10) (cyclic di-GMP [3]) | normalized RNA/DNA level with ligand (log10) (cyclic di-GMP [4])
GACGAA | -0.377 ± 0.016 | 1.43 ± 0.12 | -0.01 ± 0.049 | 1.65 ± 0.085
GACGAU | -0.37 ± 0.031 | 1.59 ± 0.021 | -0.0677 ± 0.044 | 1.74 ± 0.14
UAAUCU | -0.884 ± 0.042 | 1.718 ± 0.0051 | -0.707 ± 0.054 | 1.85 ± 0.08
UAAUCG | -0.029 ± 0.037 | 1.7 ± 0.017 | 0.149 ± 0.061 | 1.82 ± 0.17
AAGCCU | 0.14 ± 0.18 | 1.705 ± 0.014 | 0.3704 ± 0.0037 | 1.84 ± 0.11
AAGCCA | -0.228 ± 0.096 | 1.63 ± 0.029 | -0.278 ± 0.12 | 1.79 ± 0.16
GACAUA | -0.45 ± 0.0083 | 1.52 ± 0.04 | -0.156 ± 0.096 | 1.68 ± 0.064
CACGAA | -0.353 ± 0.036 | 1.33 ± 0.14 | -0.00961 ± 0.027 | 1.53 ± 0.094
GAAUUG | -0.422 ± 0.012 | 1.57 ± 0.096 | -0.0224 ± 0.071 | 1.74 ± 0.11
UACGUG | -0.864 ± 0.019 | 1.69 ± 0.031 | -0.635 ± 0.083 | 1.85 ± 0.12
CAAUAA | -0.688 ± 0.028 | 1.25 ± 0.083 | -0.398 ± 0.011 | 1.52 ± 0.074
CAAUAU | -0.659 ± 0.028 | 1.49 ± 0.061 | -0.365 ± 0.019 | 1.67 ± 0.11
CACAGU | -0.189 ± 0.13 | 1.74 ± 0.045 | 0.105 ± 0.062 | 1.85 ± 0.064
CACAGA | -0.384 ± 0.025 | 1.53 ± 0.058 | -0.0508 ± 0.039 | 1.74 ± 0.1
CAAUCA | -0.5458 ± 0.0024 | 1.4 ± 0.11 | -0.364 ± 0.017 | 1.61 ± 0.085
CAAUCC | -0.487 ± 0.028 | 1.75 ± 0.049 | -0.368 ± 0.016 | 1.87 ± 0.11
CAAUCU | -1.02 ± 0.16 | 1.54 ± 0.069 | -0.88 ± 0.038 | 1.71 ± 0.13
AAAUGU | -0.132 ± 0.022 | 1.54 ± 0.03 | 0.136 ± 0.093 | 1.78 ± 0.09
AAAUGC | -0.0259 ± 0.11 | 1.642 ± 0.01 | 0.294 ± 0.022 | 1.79 ± 0.09
AAAUGA | -0.5596 ± 0.00088 | 1.43 ± 0.061 | -0.289 ± 0.037 | 1.62 ± 0.089
AAAGAC | -0.0292 ± 0.22 | 1.56 ± 0.036 | 0.33 ± 0.099 | 1.75 ± 0.09
AAAGAU | 0.0924 ± 0.13 | 1.52 ± 0.037 | 0.367 ± 0.016 | 1.71 ± 0.17
AACUCC | 0.000732 ± 0.015 | 1.815 ± 0.0033 | 0.225 ± 0.013 | 1.91 ± 0.097
AAACUU | -0.199 ± 0.0094 | 1.646 ± 0.0047 | 0.118 ± 0.0021 | 1.82 ± 0.091

Variant | FACS-Seq fitted mean (log10) (cyclic di-GMP [1]) | normalized RNA/DNA level without ligand (log10) (cyclic di-GMP [2]) | FACS-Seq fitted mean (log10) (cyclic di-GMP [3]) | normalized RNA/DNA level with ligand (log10) (cyclic di-GMP [4])
UACAAC | 0.031 ± 0.034 | 1.68 ± 0.03 | 0.268 ± 0.013 | 1.8 ± 0.11
CACAAA | -0.504 ± 0.031 | 1.24 ± 0.14 | -0.278 ± 0.055 | 1.46 ± 0.12
AAAGUU | -0.298 ± 0.1 | 1.59 ± 0.068 | 0.0631 ± 0.068 | 1.77 ± 0.03
AAAGUC | 0.135 ± 0.29 | 1.574 ± 0.0057 | 0.392 ± 0.048 | 1.75 ± 0.1
CACGGA | -0.398 ± 0.042 | 1.48 ± 0.092 | 0.0123 ± 0.14 | 1.72 ± 0.06
CACCCU | -0.383 ± 0.019 | 1.65 ± 0.082 | -0.109 ± 0.033 | 1.75 ± 0.038
GAAUGA | -0.606 ± 0.037 | 1.48 ± 0.06 | -0.296 ± 0.056 | 1.65 ± 0.16
GAAUGG | -0.119 ± 0.036 | 1.62 ± 0.041 | 0.0864 ± 0.016 | 1.75 ± 0.086
GAAUGC | 0.00373 ± 0.18 | 1.63 ± 0.013 | 0.31 ± 0.049 | 1.75 ± 0.12
CAGCUG | 0.189 ± 0.018 | 1.767 ± 0.0057 | 0.403 ± 0.038 | 1.84 ± 0.12
CAGCUA | -0.432 ± 0.009 | 1.37 ± 0.077 | -0.148 ± 0.079 | 1.56 ± 0.076
GAGCGU | -1.38 ± 0.089 | 1.814 ± 0.0041 | -1.2 ± 0.013 | 1.9 ± 0.052
GAGCGC | -0.228 ± 0.14 | 1.79 ± 0.049 | -0.101 ± 0.16 | 1.83 ± 0.082
UAAUAG | -0.126 ± 0.087 | 1.667 ± 0.0048 | -0.0799 ± 0.024 | 1.83 ± 0.099
UACUUU | -0.1 ± 0.037 | 1.68 ± 0.019 | 0.192 ± 0.048 | 1.84 ± 0.13
GAGCCU | -0.783 ± 0.038 | 1.79 ± 0.072 | -0.638 ± 0.064 | 1.89 ± 0.12
CACCUU | -0.0716 ± 0.019 | 1.48 ± 0.076 | 0.228 ± 0.071 | 1.67 ± 0.066
CACCUA | -0.26 ± 0.028 | 1.36 ± 0.15 | 0.0161 ± 0.13 | 1.58 ± 0.12
CAGACA | -0.617 ± 0.0047 | 1.33 ± 0.059 | -0.36 ± 0.034 | 1.51 ± 0.13
CAGACU | -0.00398 ± 0.14 | 1.584 ± 0.0086 | 0.149 ± 0.04 | 1.72 ± 0.1
CACUUA | -0.231 ± 0.015 | 1.43 ± 0.04 | -0.0377 ± 0.081 | 1.59 ± 0.11
CACUUG | -0.104 ± 0.083 | 1.74 ± 0.026 | 0.131 ± 0.0033 | 1.87 ± 0.12
UAGACU | -0.164 ± 0.073 | 1.68 ± 0.051 | 0.141 ± 0.12 | 1.85 ± 0.13
AAAUUG | -0.199 ± 0.011 | 1.56 ± 0.096 | -0.00914 ± 0.051 | 1.72 ± 0.097

Variant | FACS-Seq fitted mean (log10) (cyclic di-GMP [1]) | normalized RNA/DNA level without ligand (log10) (cyclic di-GMP [2]) | FACS-Seq fitted mean (log10) (cyclic di-GMP [3]) | normalized RNA/DNA level with ligand (log10) (cyclic di-GMP [4])
AAAGCU | -0.569 ± 0.092 | 1.63 ± 0.063 | -0.245 ± 0.025 | 1.78 ± 0.099
CAGAAA | -0.664 ± 0.055 | 1.15 ± 0.12 | -0.562 ± 0.02 | 1.28 ± 0.14
GAAUAA | -0.287 ± 0.05 | 1.44 ± 0.067 | -0.0182 ± 0.045 | 1.68 ± 0.15
GAAUAG | -0.662 ± 0.05 | 1.64 ± 0.018 | -0.40149 ± 0.00037 | 1.78 ± 0.15
GAAGCA | -0.476 ± 0.078 | 1.8 ± 0.082 | -0.329 ± 0.2 | 1.88 ± 0.15
GAAGCG | -0.36 ± 0.013 | 1.841 ± 0.018 | -0.268 ± 0.16 | 1.87 ± 0.069
GAGCAG | -0.832 ± 0.019 | 1.9 ± 0.058 | -0.596 ± 0.16 | 1.95 ± 0.13
AACAAG | -0.43 ± 0.028 | 1.523 ± 0.0073 | -0.281 ± 0.037 | 1.73 ± 0.088
AACAAU | -0.133 ± 0.038 | 1.594 ± 0.0028 | 0.103 ± 0.014 | 1.71 ± 0.13
UAGAUG | 0.0515 ± 0.09 | 1.53 ± 0.057 | 0.322 ± 0.085 | 1.75 ± 0.089
AAGCGA | -0.459 ± 0.0051 | 1.44 ± 0.1 | -0.202 ± 0.029 | 1.65 ± 0.13
GAAGAU | -0.28 ± 0.1 | 1.5 ± 0.088 | 0.0337 ± 0.016 | 1.65 ± 0.14
GAAGAA | -0.423 ± 0.0092 | 1.38 ± 0.15 | -0.233 ± 0.045 | 1.59 ± 0.08
UACGAA | -0.516 ± 0.06 | 1.61 ± 0.03 | -0.204 ± 0.067 | 1.76 ± 0.1
AACACU | 0.049 ± 0.17 | 1.68 ± 0.033 | 0.373 ± 0.032 | 1.81 ± 0.096
AACACA | -0.289 ± 0.0062 | 1.54 ± 0.031 | -0.0564 ± 0.0031 | 1.75 ± 0.12
UAGAAA | -0.272 ± 0.026 | 1.58 ± 0.037 | -0.0653 ± 0.024 | 1.75 ± 0.18
UAGAAU | -0.456 ± 0.092 | 1.56 ± 0.036 | -0.193 ± 0.12 | 1.75 ± 0.13
UACCCU | -0.513 ± 0.0088 | 1.74 ± 0.024 | -0.201 ± 0.055 | 1.87 ± 0.09
UACCCA | -0.0154 ± 0.2 | 1.73 ± 0.074 | 0.278 ± 0.097 | 1.86 ± 0.13
UACAGA | -0.198 ± 0.37 | 1.61 ± 0.052 | -0.101 ± 0.13 | 1.75 ± 0.14
GACAGA | -0.179 ± 0.21 | 1.52 ± 0.065 | 0.0814 ± 0.049 | 1.7 ± 0.068
UAAGUA | -0.292 ± 0.034 | 1.609 ± 0.0095 | -0.0651 ± 0.011 | 1.78 ± 0.086
